In one test the target is Human FcRn with human β2M on MDCK II clone 15 cells (human) (UniProt P55899). Put plainly: cell-based or functional assay.
Chain of Human FcRn with human β2M on MDCK II clone 15 cells (human) (P55899 24-365, chain 1 of 2): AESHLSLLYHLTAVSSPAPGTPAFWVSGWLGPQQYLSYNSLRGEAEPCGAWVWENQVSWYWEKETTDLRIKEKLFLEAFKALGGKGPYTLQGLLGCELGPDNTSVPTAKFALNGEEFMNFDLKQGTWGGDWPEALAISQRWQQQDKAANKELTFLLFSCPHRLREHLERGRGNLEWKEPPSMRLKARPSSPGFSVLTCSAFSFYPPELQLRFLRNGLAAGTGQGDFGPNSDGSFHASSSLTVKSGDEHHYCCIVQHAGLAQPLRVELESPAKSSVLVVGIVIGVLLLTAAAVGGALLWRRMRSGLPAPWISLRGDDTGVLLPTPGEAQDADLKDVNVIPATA
Chain of Human FcRn with human β2M on MDCK II clone 15 cells (human) (P61769 21-119, chain 2 of 2, further chain): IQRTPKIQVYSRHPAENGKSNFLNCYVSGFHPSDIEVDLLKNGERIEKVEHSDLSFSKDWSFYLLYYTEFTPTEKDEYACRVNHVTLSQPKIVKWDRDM
Substance “IgG1 IgM tail-piece, H310L (Fc-multimer) (Fc fusion)” registered a Blockade of IgG recycling (% inhibition at 100 µg/ml) of 45.
“IgG1 IgM tail-piece, T307A (Fc-multimer) (Fc fusion)” displayed a Blockade of IgG intracellular uptake EC50 of 0.54 µg/mL and a Blockade of IgG recycling EC50 of 0.35 µg/mL.
The matching figures for “IgG1 IgM tail-piece, V308F (Fc-multimer) (Fc fusion)”: 0.12 µg/mL and 0.073 µg/mL.
“IgG1 IgM tail-piece, V308P (Fc-multimer) (Fc fusion)” registered a Blockade of IgG intracellular uptake EC50 of 0.34 µg/mL and a Blockade of IgG recycling EC50 of 0.55 µg/mL.
Taken in the same sequence, the figures for “IgG1 IgM tail-piece, Wild-type (Fc-multimer) (Fc fusion)” were 4.4 µg/mL and 0.33 µg/mL.
Substance “IgG4 IgM tail-piece, T307A (Fc-multimer) (Fc fusion)” yielded a Blockade of IgG intracellular uptake EC50 of 0.5 µg/mL.
For “IgG4 IgM tail-piece, V308F (Fc-multimer) (Fc fusion)”, the Blockade of IgG intracellular uptake EC50 was found to be 0.42 µg/mL and the Blockade of IgG recycling EC50 was 0.56 µg/mL.
Taken in the same sequence, the figures for “IgG4 IgM tail-piece, V308P (Fc-multimer) (Fc fusion)” were 0.51 µg/mL and 0.42 µg/mL.
The matching figures for “IgG4 IgM tail-piece, Wild-type (Fc-multimer) (Fc fusion)”: 5.9 µg/mL and 1 µg/mL.

The target is the same in a further test.
Test: not given
As for “IgG1 Fc IgM tp L309 (wild type IgG1 Fc-multimer) (from UniProt P0DOX5 228-449) (Fc fusion)”, the EC50, inhibition of FcRn mediated IgG recycling (cell lysates), MDCK II clone 15 cells, biotinylated human IgG, MSD detection turned out to be 0.37 µg/mL and the EC50, inhibition of FcRn mediated IgG recycling (culture media), MDCK II clone 15 cells, biotinylated human IgG, MSD detection was found to be 0.33 µg/mL.
Take “human IgG1 Fc-multimer IgM tp L309C (from UniProt P0DOX5 228-449) (Fc fusion)”: the EC50, inhibition of FcRn mediated IgG recycling (cell lysates), MDCK II clone 15 cells, biotinylated human IgG, MSD detection worked out at 7.28 µg/mL.
